Conditions: Equus caballus, pH 2, Sodium phosphate 10 mM, KCl 1 M; for denaturant midpoint (higher = more stable) / unfolding free energy: 10 °C, Acid
[1] = Thermal, CD, transition: 3, structure 1AKK

Cytochrome c L95A, P00004, sequence (P00004 whole entry L95A): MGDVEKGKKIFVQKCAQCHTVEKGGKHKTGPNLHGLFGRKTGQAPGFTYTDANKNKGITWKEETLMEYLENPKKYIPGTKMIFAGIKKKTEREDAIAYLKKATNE
Cytochrome c wild type, P00004, sequence (P00004 whole entry): as the sequence (P00004 whole entry L95A) above, with A95L counted along it
Cytochrome c L95V, P00004, sequence (P00004 whole entry L95V): as the sequence (P00004 whole entry L95A) above, with A95V counted along it

| Substance | denaturant midpoint (higher = more stable) (CD) | unfolding free energy (CD) | denaturant midpoint (higher = more stable) (Fluorescence) | unfolding free energy (Fluorescence) | Tm (Thermal, CD, transition: 3) | unfolding enthalpy (van 't Hoff) (Thermal, CD, transition: 3) | denaturant midpoint (higher = more stable) (CD, structure 1AKK) | unfolding free energy (CD, structure 1AKK) | denaturant midpoint (higher = more stable) (Fluorescence, structure 1AKK) | unfolding free energy (Fluorescence, structure 1AKK) | ddG of mutation (higher = less stable) (83 °C, Thermal, CD, transition: 3, structure 1AKK) | Tm [1] | change of melting temperature, mutant - wild type (higher = more stable) [1] | unfolding enthalpy (van 't Hoff) [1] |
| --- | --- | --- | --- | --- | --- | --- | --- | --- | --- | --- | --- | --- | --- | --- |
| Cytochrome c wild type, P00004 | 0.03 M | 4.14 kcal/mol | 0.03 M | 3.54 kcal/mol | 83 °C | 107 kcal/mol |  |  |  |  |  |  |  |  |
| Cytochrome c L95V, P00004 |  |  |  |  |  |  | 0.1 M | 2.59 kcal/mol | 0.08 M | 2.7 kcal/mol | 1.2 kcal/mol | 79 °C | -4 °C | 104 kcal/mol |
| Cytochrome c L95A, P00004 |  |  |  |  |  |  | 0.83 M | 0.1 kcal/mol | 0.3 M | 0.74 kcal/mol |  |  |  |  |
